Laboratory results reported in patent publication US9687529B2, “Method of controlling coagulation” (Duke University, priority 2011, dated 2017).
Values joined by “and” are separate entries in the source; they are usually repeats but may differ in a detail not shown here. Equal entries are not always repeated. Where two headings read alike, the source gives them in different places. Strand notation (5' to 3'): a small letter for the sugar, then the base; units joined by * are phosphorothioate-linked, units joined directly phosphodiester-linked; [ ] holds rarer units or linkages, { } end groups; capitals alone tell only the bases. r = 2'-OH (RNA); f = 2'-fluoro

Legend:
clot formation in plasma = conditions: cited from earlier work
[1] = patient with renal failure; cited from earlier work
[2] = tested on: clot formation in whole blood; assay: Antidote reversal TEG of 11F7T+R9D-14T anticoagulation; assay type: cell-based, human; conditions: blood anticoagulated 1 hour with 11F7T 0.5 μM+R9D-14T 5 μM; protamine 22 μM (4-fold molar excess); average
Procedure: For the antidote reversal TEGs, whole blood was anticoagulated with a combination of the FXa (0.5 μM) and prothrombin (5 μM) aptamers for 1 hour as described, antidote (10 μL) was added, and the assay was continued until a stable clot was formed. For complete antidote reversal at one hour a 4-fold molar excess of protamine (22 μM) was added, 50 μg of CDP was added, or a 2-fold molar excess of the R9D-14T oligonucleotide (10 μM) in combination with a 3-fold molar excess of the 11F7T antidote oligonucleotide (1.5 μM) was added.
Whole blood was anticoagulated with 11F7T+R9D-14T at a dose that prevents clot formation for greater than three hours, and various antidotes were subsequently added after one hour to assess anticoagulation reversal and resulting clot formation. Both protamine and the β-cyclodextrin containing polymer (CDP) were tested for their ability to function as a universal antidote by simultaneously reversing both aptamers in combination (Oney et al, Nat Med 15:1224-8 (2009)). […] Thus, although the 11F7T+R9D-14T aptamer combination is an extremely potent anticoagulant cocktail that can mimic UFH anticoagulation in an ex vivo oxygenator circuit, the aptamer combination can be rapidly reversed with either a universal antidote or a combination of oligonucleotide antidotes.

thrombin = thrombin (Homo sapiens, UniProt P00734); conditions: cited from earlier work
[3] = cited from earlier work
[4] = tested on: thrombin generation in normal human platelet poor plasma; assay: Calibrated automated thrombography (CAT); assay type: biochemical; conditions: TF 5 ρM
Procedure: Normal human platelet poor plasma (80 μL) was mixed with aptamer(s) (10 μL) in an Immunolon 2HB U Bottom Mictrotiter 96-well plate (Thermo Labsystems, Franklin, Mass.) and incubated at 37° C. for 5 min. PPP reagent (Diagnostica Stago, Parsippany, N.J.) (either 1 ρM or 5 ρM TF, 20 μL, Diagnostica Stago) was added, and the mixture was incubated at 37° C. for another 5 min. FluCa (Diagnostica Stago) (10 μL) was added to initiate the assay and thrombin generation was measured for 60 minutes at 37° C. with a Fluoroskan Ascent fluorometer (ThermoLabsystem, Helsinki, Finland) according to the manufacturer's instructions. The amount of thrombin generated was quantified by comparison to an assay with thrombin calibrator reagent (Diagnostica Stago) that has a known activity toward the fluorogenic substrate. The lag time, peak amount of thrombin generated, and endogenous thrombin potential (ETP) were automatically calculated by the Thrombinoscope software (Thrombinoscope BV, the Netherlands).
Thrombin is the final protease formed in the coagulation cascade, and the rate of thrombin generation and the total amount of thrombin generated is associated with blood clot formation and stability (Wolberg, Blood Rev 21:131-42 (2007)). To gain more information about the impact of aptamer anticoagulation on the kinetics of thrombin generation, the individual aptamers were analyzed with calibrated automated thrombography (CAT). The CAT assay measures real-time thrombin generation in plasma by monitoring cleavage of a thrombin-specific fluorogenic substrate in response to TF stimulation (Heruker et al, Pathophysiol Haemost Thromb 33: 4-15 (2003)). The parameters of thrombin generation analyzed include: the lag time (time until thrombin generation begins), the peak (the maximal amount of thrombin generated at a given time) and the endogenous thrombin potential (ETP, the total amount of thrombin generated). Similar to the aPTT and PT clotting assays, all of the individual aptamers dose-dependently impacted the various parameters of thrombin generation (FIG. 21 and Table 1). […] 9.3T minorly impacted all parameters of thrombin generation with the high TF reagent; however, because high concentrations of TF may bypass FIX activity by directly generating FXa, the manufacturer recommends low concentrations of TF for analyzing FIX deficient (i.e, Hemophilia B) plasma in the CAT.

[5] = tested on: clot formation in whole blood; assay: Thromboelastography (TEG), whole blood stimulated with tissue factor; assay type: cell-based, human
Procedure: Blood was drawn from healthy, consented volunteers under a Duke University Institutional Review Board approved protocol and anticoagulated with 3.2% sodium citrate. Whole blood (320 μL) was mixed with anticoagulant (heparin or aptamers) (10 μL) and kaolin (Haemonetics, Niles, Ill.) (10 μL) or CAT PRP reagent (Diagnostica Stago, 0.33 ρM TF final) (10 μL) was added to stimulate clotting. CaCl2 (20 μL) was immediately added to overcome the citrate, the mixture was added to a plain disposable plastic TEG cup (Haemonetics), and the assay was run according to the manufacturer's instructions. Clot formation at 37° C. was measured with a Thromboelastograph Analyzer (Haemonetics, Niles, Ill.) until a stable clot was formed (i.e., a maximum amplitude was reached) or for three hours with the aptamer combinations. The time lag time, α-angle, and maximum amplitude were automatically calculated by the TEG® Analytical Software version 4.2.3 (Haemonetics).
Because kaolin stimulates blood via the intrinsic pathway, it is unlikely that 7S-1 (FVIIa aptamer) would impair clot formation with this type of stimulation; thus, this aptamer was tested in a modified TEG with TF stimulation. CAT platelet rich plasma (PRP) reagent (TF) was diluted to a final concentration of 0.33 ρM TF to stimulate clotting.

[6] = tested on: clot formation in normal human platelet poor plasma; assay: Prothrombin time (PT) plasma clotting assay; assay type: biochemical
Procedure: The activated partial thromboplastin time (aPTT) and prothrombin time (PT) assays were performed on a model ST4 mechanical coagulometer (Diagnostica Stago, Parsippany, N.J.) as previously described (Bompiani et al, J Thromb Haemost 10:870-80 (2012)). For the aPTT, 50 μL of normal human platelet poor plasma (PPP) was incubated with 50 μL TriniClot aPTT S (Trinity BioTech, Bray, Co Wicklow, Ireland) at 37° C. for 5 min. Aptamer(s) (5 μL) was added, and the mixture was incubated at 37° C. for another 5 min, and CaCl2 (50 μL) was added to initiate the assay. For the PT, 50 μL of normal human PPP was incubated with 5 μL of aptamer(s) at 37° C. for 5 min. TriniClot PT Excel reagent (Trinity BioTech, Bray, Co Wicklow, Ireland) (100 μL) was added to initiate the reaction. Assays with a combination of two aptamers contain an equimolar concentration of each individual aptamer, and the data shown are the total RNA concentration.
To compare the anticoagulant effect of these four aptamers, dose-response titrations were performed in several clinical plasma-based clotting assays. The activated partial thromboplastin time (aPTT) and prothrombin time (PT) are plasma clotting assays that are clinically used to probe for abnormalities in the intrinsic and extrinsic coagulation pathways, respectively (Van Cott et al, editors. Jacobs & DeMott laboratory test handbook. 5th ed. Hudson Ohio: Lexi-Comp. p. 327-58 (2001)). These relatively simple assays measure the time until clot formation in platelet poor plasma (PPP) in response to either robust tissue factor (TF), or contact stimulation via negatively charged surfaces (i.e., silica, kaolin, celite). […] At high concentrations, the prothrombin aptamer (R9D-14T) was the most robust anticoagulant and inhibited greater than 96% of prothrombin activity in the aPTT and PT. At 4 μM, R9D-14T increased the aPTT clotting time approximately 18-fold and the PT clotting time greater than 80-fold (exceeded the assay limit of 999 sec). […] At the same dose, the FIXa aptamer (9.3T) inhibited greater than 99% of FIX activity and increased the aPTT clotting time approximately 5.5-fold, while the FVIIa aptamer (7S-1) increased the PT clotting time 3-fold and inhibited greater than 99% of FVII activity (FIGS. 20A and 20B).

[7] = tested on: clot formation in whole blood; assay: TEG of whole blood, coagulation triggered by tissue factor (Example I); assay type: cell-based; conditions: TF; FVIIa aptamer 0.5, FIXa aptamer 1.0, FXa aptamer 1.0 micromolar
Procedure: TEG is a waveform generated from serial measurements of the torque transmitted from a small oscillating cup to the tip of a metal pin inserted into the cup by a 360 microliter sample of blood or plasma added to the cup.
A 360 microliter blood sample has been added to the cup. For 180 minutes after the sample is added, the cup oscillates alternatively clockwise and counterclockwise through an arc of 4° 45′ at a frequency of one oscillation cycle—i. e., one clockwise rotation and one counterclockwise rotation—every 10 seconds. The lower end of the pin is immersed by the sample; the upper end is suspended from a torsion wire. The TEG analyzer records a single measurement of rotation-induced torque after each clockwise rotation and after each counterclockwise rotation of the cup. “The torque of the rotating cup is transmitted to the immersed pin only after fibrin-platelet bonding has linked the cup and [the] pin together. The strength of these fibrin-platelet bonds affects the magnitude of the pin motion, such that strong clots move the pin directly in phase with the cup motion. Thus, the magnitude of the output is directly related to the strength of the formed clot . . . . [If] the clot retracts or lyses, these bonds are broken and the transfer of cup motion is diminished. The rotation movement of the pin is converted by a mechanical-electrical transducer to an electrical signal which can be monitored by a computer” (TEG 5000 User Manual, pp 3-4, 1999-2007)). The computer converts the series of electrical signals into the TEG tracing.

[8] = tested on: clot formation in whole human blood; assay: TEG of dogbone aptamer in whole human blood; assay type: cell-based
Procedure: Activity of dogbone 4 was tested using thromboelastography (TEG), an assay using whole human blood.

[9] = concentration ten-fold higher than recommended for CPB

lepirudin
clot propagation and strength (in words) (clot formation in plasma; 10 micrograms/mL, approximately 1.4 micromolar): significantly reduce clot propagation and strength
time the drug can remain in the circulation [1]: > 120 h

protamine
time to stable clot formation after antidote [2]: ≤ 15 min

CC1CNc2c(cccc2S(=O)(=O)N[C@@H](CCCNC(=N)N)C(=O)N2CC[C@@H](C)C[C@@H]2C(=O)O)C1 (some centres unmarked) [argatroban]
clot propagation and strength (in words) (clot formation in plasma; [9]): did not significantly reduce clot propagation and strength

FPRPGGGGNGDFEEIPEEYL [bivalirudin]
clot propagation and strength (in words) (clot formation in plasma; [9]): did not significantly reduce clot propagation and strength
Kd (thrombin): ~1.9 nM
in vivo half-life [3]: about 30 minutes

B1: 7S-1: FVIIa aptamer, 2'-fluoropyrimidine modified RNA, SEQ ID NO: 5 (nucleic acid)
chain: rGrGrGrArGrGrAfCrGrAfUrGfCrGrGrAfCfUfCfCfUfCfCrArArGfCrGrAfCfCrArAfCrAfUfCrGrGfUfCfCfCrGfUfUfUfCrArGrAfUfCrArAfCrArGrAfCrGrAfCfUfCrGfCfUrGrArGrGrAfUfCfCrGrArGrA
ETP ([4]; RNA 1.25 nM): 1657.33 ± 42.72 nM·min
Lag-time ([4]; RNA 1.25 nM): 1.67 ± 0.19 min
Peak ([4]; RNA 1.25 nM): 314.56 ± 14.17 nM
TTP ([4]; RNA 1.25 nM): 4.28 ± 0.20 min
ETP ([4]; RNA 2.5 nM): 1603.50 ± 28.00 nM·min
Lag-time ([4]; RNA 2.5 nM): 2.00 ± 0.17 min
Peak ([4]; RNA 2.5 nM): 274.39 ± 29.71 nM
TTP ([4]; RNA 2.5 nM): 5.29 ± 0.55 min
ETP ([4]; RNA 5 nM): 1656.20 ± 96.89 nM·min
Lag-time ([4]; RNA 5 nM): 3.17 ± 0.19 min
Peak ([4]; RNA 5 nM): 238.68 ± 31.03 nM
TTP ([4]; RNA 5 nM): 7.34 ± 0.55 min
ETP ([4]; RNA 10 nM): 1339.50 ± 21.15 nM·min
Lag-time ([4]; RNA 10 nM): 4.51 ± 0.42 min
Peak ([4]; RNA 10 nM): 130.54 ± 14.06 nM
TTP ([4]; RNA 10 nM): 11.01 ± 0.79 min
ETP ([4]; RNA 30 nM): 1523.50 ± 160.63 nM·min
Lag-time ([4]; RNA 30 nM): 6.01 ± 0.44 min
Peak ([4]; RNA 30 nM): 199.25 ± 41.13 nM
TTP ([4]; RNA 30 nM): 10.80 ± 1.03 min
Angle ([5]; RNA 0.12 μM): 65.2 ± 5.2 deg
Lag-time ([5]; RNA 0.12 μM): 4.5 ± 0.6 min
Max. Amplitude ([5]; RNA 0.12 μM): 63.0 ± 3.7 mm
Angle ([5]; RNA 0.25 μM): 62.4 ± 3.7 deg
Lag-time ([5]; RNA 0.25 μM): 5.1 ± 1.2 min
Max. Amplitude ([5]; RNA 0.25 μM): 64.0 ± 2.8 mm
Angle ([5]; RNA 0.50 μM): 61.9 deg and 61.9 ± 3.3 deg
Lag-time ([5]; RNA 0.50 μM): 6.6 min and 6.6 ± 0.8 min
Max. Amplitude ([5]; RNA 0.50 μM): 63.1 mm and 63.1 ± 2.0 mm
increase of PT clotting time ([6]; 4 μM aptamer): 3 fold
FVII activity inhibited ([6]; PT, 4 μM): greater than 99%
clot formation (in words) [7]: none of those aptamers prevented clot formation

B2: FX/FII dogbone 4: FX/FII dogbone aptamer of reduced size, SEQ ID NO: 22 (nucleic acid)
chain: GUCGAUCACACAGUUCAAACGUAAUAAGCCAAUGUACGAGGCAGACGACAAAGCCCCAGCGAGAUAAUACUUGGCCCCGCU
modifications: listed as RNA, chemistry not given here
activity compared to the free combination of aptamers (in words) [8]: comparable or better activity than the free combination of aptamers
activity compared to the free combination of aptamers (in words) ([8]; listed as Dogbone Aptamer 4): inhibits clot formation as well as the combination of individual Factor II (R9D-14T) and X (11f7T) aptamers
